# Test results: US20130089544A1 (AstraZeneca / MedImmune, published 2013)
# Changes are numbered by the printed parent chain.
# B1: monoclonal antibody 1.43 (antibody, V domains shown)
# VH: EVQLVESGGGLVQPGGSLRLSCAASGFTFSSYWMHWVRQTPGKGLEWVANIKQDGSEKYYVDSVKGRFTISRDNAKNSLHLQMNSLRAEDTAAYYCASFRDYGMDVWGQGTTVTVSS
# VL: DIQMTQSPSSLSASVGDRVTITCRASQGISNHLAWFQQKPGKAPKSLIYGASSLQTGVPSKFSGSGSGTDFTLTISSLQPEDFASYFCQQYKGYPITFGQGTRLEIK
# B2: monoclonal antibody 1.100.1 (antibody, V domains shown)
# VH: EVQLVESGGGLVKPGGSLRLSCAASGFTFSSYSMNWVRQAPGKGLEWVSSISSSSSYIYYADSVKGRFTISRDNAKNSLYLQMNSLRAEDTAVYYCARGGDGYNYYYFDYWGQGTLVTVSS
# VL: DIVMTQSPDSLAVSLGERATITCKSSQSVFFRSNNKNCLAWYQQRPGQPPNLLIYWASTRESGVPDRFSGSGCGTDFTLTISSLQAEDVAVYYCQQYFGSPFTFGPGTKVDIK
# notes: Fully human IgG (gamma/kappa) from a XenoMouse XM3B-3 hybridoma; constant regions not tied to it; also called 1.100.2; 1.100.3
# B3: monoclonal antibody 1.140 (antibody, V domains shown)
# VH: B2 VH with G42R
# VL: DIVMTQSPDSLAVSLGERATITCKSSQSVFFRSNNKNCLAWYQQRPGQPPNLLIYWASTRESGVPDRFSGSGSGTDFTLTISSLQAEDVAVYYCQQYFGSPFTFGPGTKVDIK
# notes: Fully human IgG (gamma/kappa) from a XenoMouse XM3B-3 hybridoma; constant regions not tied to it; also called 1.124
# B4: monoclonal antibody 1.14.1 (antibody, V domains shown)
# VH: B2 VH
# VL: B2 VL with A40T, C73S, S82N, S83N
# notes: Fully human IgG (gamma/kappa) from a XenoMouse XM3B-3 hybridoma; constant regions not tied to it
# B5: monoclonal antibody 1.20 (antibody, V domains shown)
# VH: B2 VH with S33T, R87S, Y95S
# VL: B2 VL with D9G, A12V, P49S, C73S
# notes: Fully human IgG (gamma/kappa) from a XenoMouse XM3B-3 hybridoma; constant regions not tied to it; also called 1.20.1; 1.19
# B6: monoclonal antibody 1.24 (antibody, V domains shown)
# VH: B2 VH
# VL: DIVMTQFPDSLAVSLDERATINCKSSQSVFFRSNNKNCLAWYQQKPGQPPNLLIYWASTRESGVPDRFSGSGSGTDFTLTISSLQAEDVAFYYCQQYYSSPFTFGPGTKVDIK
# notes: Fully human IgG (gamma/kappa) from a XenoMouse XM3B-3 hybridoma; constant regions not tied to it; also called 1.24.3
# B7: monoclonal antibody 1.96 (antibody, V domains shown)
# VH: B2 VH
# VL: B2 VL with I54F, C73S, F104L
# notes: as for B4
# B8: monoclonal antibody 1.71.3 (antibody, V domains shown)
# VH: EVQLVESGGGLVQPGGSLRLSCTASGFPFSSYDMHWVRQATGKGLEWVSAIGTAGDTFYPGSVKGRFTISRENAKNSLYLQMNSLRAGDTAVYYCAREGYSSGRYFYYGMDVWGQGTTVTVSS
# VL: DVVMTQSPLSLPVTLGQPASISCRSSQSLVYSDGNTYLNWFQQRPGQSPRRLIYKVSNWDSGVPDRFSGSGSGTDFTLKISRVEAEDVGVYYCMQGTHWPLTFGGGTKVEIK
# Target: T1, human ErbB2, full length, on cells (human, UniProt P04626 23-1255)
# Experiment: cell-based or functional assay
"% Inhibition @10 µg/ml, Heregulin-induced MCF7 cell proliferation [%]","EC50 (ng/ml), inhibition of Heregulin-induced MCF7 cell proliferation [ng/mL]",Binder
53,~10000,B1
95,2040,B2
91,633,B3
96,640,B4
100,770,B5
81,3020,B6
98,2830,B7
,> 10000,B8

# Target: T2, human ErbB2 ECD-myc/His fusion protein (human, UniProt P04626 23-652)
# T2 construct: Made in-house in 293T cells; also called hErbB2(ECD)/cMyc-His; huErbB2 (ECD)/c-myc-His; not shown: c-myc/His tag of the pSecTag2Hygro vector
# Experiment: SPR, Biacore 2000 medium resolution; mAb captured on goat anti-human IgG, ErbB2(ECD)-cMyc/His injected; 1:1 fit
# Protocol: The binding affinity of eight of the anti-ErbB2 antibodies was measured by medium resolution Biacore. All experiments were performed using a Biacore 2000 instrument.
# First, 12 high-density goat α-human IgG antibody surfaces over three CM5 Biacore chips were prepared using routine amine coupling. […] Before each antigen injection cycle, each mAb was captured for six to nine seconds at a 100 μL/min flow rate. A 2-minute wash step followed each capture injection to stabilize each mAb baseline. […] All samples were randomly injected with several mAb capture/buffer inject cycles interspersed for double referencing. […] A flow rate of 100 μL/min. was used for all injection cycles. The data was fit to a 1:1 interaction model using CLAMP.
Kd [nM],koff [s⁻¹],kon [M⁻¹ s⁻¹],Binder
2.9,0.000301,104000,B2
3.5,0.000333,94000,B3
2.5,0.000256,102000,B4
3.6,0.000344,95000,B5
5.1,0.000655,128000,B6
2.6,0.000273,103000,B7

# Target: T2, human ErbB2 ECD-myc/His fusion protein
# Experiment: SPR, Biacore T100 high resolution; mAb captured on goat anti-human IgG, hHer-2(ECD)cMyc injected; 1:1 fit
# Protocol: All experiments were performed using a Biacore T100 instrument. First, a high-density goat α human IgG antibody (Caltag H10500) surface was prepared over two CM5 Biacore chips using routine amine coupling. Each mAb was diluted in HBS-P running buffer containing 100 μg/ml Bovine serum albumin (BSA).
# A capture level protocol was developed for all five mAbs. Before each antigen injection cycle, each mAb was captured for 15 to 30 seconds at a 20 μL/min flow rate. A 5-minute wash step followed each capture injection to stabilize each mAb baseline. […] The samples were prepared in the running buffer described above. All samples were randomly injected with several mAb capture/buffer inject cycles interspersed for double referencing. […] A flow rate of 50 μL/min. was used for all injection cycles.
# All sensorgram data were fit to a 1:1 interaction model using CLAMP.
Kd [nM],koff [s⁻¹],kon [M⁻¹ s⁻¹],Binder
10.6,0.000173,16400,B3
11.6,0.000194,16800,B7

# Target: T1, human ErbB2, full length, on cells
# Experiment: cell-based or functional assay
# Remark: another data set of the same source
"% Inhibition @10 µg/ml (n1), ErbB2 phosphorylation in BT474 cells at 48 hours [%]","% Inhibition @10 µg/ml (n2), ErbB2 phosphorylation in BT474 cells at 48 hours [%]",Binder
37,26,B2
31,33,B3
37,45,B4
21,28,B5
37,30,B7

# Target: T2, human ErbB2 ECD-myc/His fusion protein
# Experiment: limited antigen ELISA, 31 ng/ml ErbB2 ECD-myc/His coated, supernatant 1:25
# Protocol: […] […] Antigen-coated plates were washed three times, blocked with 1% non-fat skim milk/PBS for at least 30 minutes at room temperature, and then washed again three times. Each hybridoma line sample was titrated in 1% non-fat skim-milk/PBS 1:3 for 7 points starting from a 1:25 dilution. […] The next day, plates were washed three times and incubated with 50 μl of 400 ng/ml immunopure Goat anti-human IgG (Fc)-HRP (Pierce catalog #31416) for 1 hour at room temperature. Then, the plates were extensively washed and pat dried on paper towel to remove residual HRP in wells. HRP substrate TMB (enhanced K-blue TMB, Neogen catalog #308177) was added to each well and incubated for 30 min. The reaction was stopped by addition of 1N HCl. Optical density at 450 nm was read on a microplate reader (Titerteck Multiskan Ascent).
row,LA at 31 ng/ml (OD) [OD 450 nm],Binder
1,3.54,B2
2,3.99,B4
3,2.35,B6

# Target: T1, human ErbB2, full length, on cells
# Experiment: cell-based or functional assay
# Remark: another data set of the same source
"EC50 (ng/ml) n1, inhibition of Heregulin-induced ErbB2 phosphorylation in MCF7 cells [ng/mL]","EC50 (ng/ml) n2, inhibition of Heregulin-induced ErbB2 phosphorylation in MCF7 cells [ng/mL]",Binder
> 10000,> 10000,B1
39.9,33.7,B2
14.7,22.9,B3
33.7,22.9,B4
15.5,17.4,B5
42.9,20.4,B6
28.8,34,B7
> 10000,,B8

# Target: T1, human ErbB2, full length, on cells
# Experiment: cell-based or functional assay
# Remark: another data set of the same source
"1 hr pTyr inhibition % (Heregulin-induced ErbB2 phosphorylation in MCF7 cells, hybridoma supernatant) [%]","24 hr pTyr inhibition % (Heregulin-induced ErbB2 phosphorylation in MCF7 cells, hybridoma supernatant) [%]",Binder
95,95,B2
103,100,B4
91,96,B5
77,99,B6

# Target: T1, human ErbB2, full length, on cells
# Experiment: cell-based or functional assay
# Remark: another data set of the same source
"% inhibition @36 µg/ml, SKBR3 cell proliferation [%]","EC50 (ng/ml), inhibition of SKBR3 cell proliferation [ng/mL]",Binder
54,61.3,B2
44,42.7,B3
52,35.7,B4
49,25.2,B5
37,48.5,B6
43,41.7,B7

# Target: T1, human ErbB2, full length, on cells
# Experiment: cell-based or functional assay
# Remark: another data set of the same source
"N1 % Inhibition @40 µg/ml, BT474 cell proliferation [%]","N1 EC50 (ng/ml), inhibition of BT474 cell proliferation [ng/mL]","N2 % Inhibition @40 µg/ml, BT474 cell proliferation [%]","N2 EC50 (ng/ml), inhibition of BT474 cell proliferation [ng/mL]",Binder
35,169,32,91.1,B2
39,300,45,70.9,B3
38,136,39,63,B4
40,85.3,37,12.8,B5
24,198,29,74.4,B6
35,131,29,66.3,B7
